In patent publication US20070015194A1 (RAMOT AT TEL AVIV UNIVERSITY, published 2007):

Biological target: T1, CC2D1A protein (coiled-coil and C2 domain containing 1A), wild type, human, GenBank Accession No. NP-060191 (human, UniProt Q6P1N0 1-951)
T1 construct: Endogenous protein in lysates of lymphoblast or lymphoblastoid cells from unaffected individuals; It is the long isoform of 951 amino acids, seen as a band of about 104 kDa; also called FLJ20241; wild type protein
T1 sequence: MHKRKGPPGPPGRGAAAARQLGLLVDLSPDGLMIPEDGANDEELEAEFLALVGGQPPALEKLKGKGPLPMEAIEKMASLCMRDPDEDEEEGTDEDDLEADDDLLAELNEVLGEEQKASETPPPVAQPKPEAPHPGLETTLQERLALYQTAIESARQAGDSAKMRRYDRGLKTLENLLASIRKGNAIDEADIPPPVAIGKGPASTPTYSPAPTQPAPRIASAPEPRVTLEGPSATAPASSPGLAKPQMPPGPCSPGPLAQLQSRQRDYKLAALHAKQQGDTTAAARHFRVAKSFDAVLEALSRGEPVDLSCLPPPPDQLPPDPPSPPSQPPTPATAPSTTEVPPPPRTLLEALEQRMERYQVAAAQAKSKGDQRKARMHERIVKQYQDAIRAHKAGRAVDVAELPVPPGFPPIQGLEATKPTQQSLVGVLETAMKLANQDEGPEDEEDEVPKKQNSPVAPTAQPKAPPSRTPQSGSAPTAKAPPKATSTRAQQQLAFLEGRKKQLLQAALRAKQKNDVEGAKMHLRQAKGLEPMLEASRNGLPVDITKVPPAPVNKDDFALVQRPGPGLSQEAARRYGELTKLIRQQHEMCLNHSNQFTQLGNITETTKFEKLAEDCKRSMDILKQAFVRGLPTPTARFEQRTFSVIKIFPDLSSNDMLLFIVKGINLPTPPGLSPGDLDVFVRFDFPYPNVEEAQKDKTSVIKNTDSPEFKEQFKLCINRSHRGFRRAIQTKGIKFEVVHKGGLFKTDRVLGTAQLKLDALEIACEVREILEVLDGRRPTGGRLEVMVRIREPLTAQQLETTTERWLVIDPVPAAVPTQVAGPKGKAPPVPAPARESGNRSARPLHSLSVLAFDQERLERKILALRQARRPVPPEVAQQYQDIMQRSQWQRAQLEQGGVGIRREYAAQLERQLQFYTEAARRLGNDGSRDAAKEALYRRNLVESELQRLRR
Experiment: co-immunoprecipitation of endogenous proteins from control lymphoblastoid cell extracts with anti-CC2D1A antibody, Western blot with anti-p50 (data not shown)
Method: Western blot—Lymphoblast cell proteins were subjected to Western blot analysis using the CC2D1A antibody. Briefly, cells were washed twice with PBS and lysed at 4° C. with lysis buffer (0.6% NP40 and protease inhibitors). After 15 minutes of incubation, cell lysates were centrifuged for 5 minutes at 14,000 rpm and supernatants were collected. Protein concentrations were determined using the BCA Protein Assay Reagent Kit (PIERCE). Whole-cell proteins (approximately 20 μg) were subjected to 7.5% SDS-PAGE and transferred to nitrocellulose membranes. The membranes were blocked for 30 minutes at room temperature with 5% skim milk in Tris-buffer (10 mM Tris, 150 mM NaCl, and 0.1% Tween-20) and subsequently incubated with anti-CC2D1A rabbit polyclonal antibody (BL695, Bethyl laboratories) diluted 1:20000, rabbit polyclonal anti-emerin (sc-15378, Santa Cruz Biotechnology) diluted 1:5000, mouse monoclonal antibody anti-NF-κB p50 (sc-8414, Santa Cruz Biotechnology) diluted 1:1000 or mouse monoclonal antibody p65 (sc-8008, Santa Cruz Biotechnology) diluted 1:5000. After washing and subsequent incubation for 1 hour with horseradish peroxidase coupled to anti-rabbit IgG or mouse IgG respectively (Jackson ImmunoResearch Laboratories, West Grove, Pa.), immunoreactive proteins were visualized by an ECL (enhanced chemiluminescence super signal) Detection Kit (PIERCE). […]

binding result: no binding
B1: p50 subunit of NF-κB (other, human, UniProt P19838 1-433, looked up)
chain: MAEDDPYLGRPEQMFHLDPSLTHTIFNPEVFQPQMALPTDGPYLQILEQPKQRGFRFRYVCEGPSHGGLPGASSEKNKKSYPQVKICNYVGPAKVIVQLVTNGKNIHLHAHSLVGKHCEDGICTVTAGPKDMVVGFANLGILHVTKKKVFETLEARMTEACIRGYNPGLLVHPDLAYLQAEGGGDRQLGDREKELIRQAALQQTKEMDLSVVRLMFTAFLPDSTGSFTRRLEPVVSDAIYDSKAPNASNLKIVRMDRTAGCVTGGEEIYLLCDKVQKDDIQIRFYEEEENGGVWEGFGDFSPTDVHRQFAIVFKTPKYKDINITKPASVFVQLRRKSDLETSEPKPFLYYPEIKDKEEVQRKRQKLMPNFSDSFGGGSGAGAGGGGMFGSGGGGGGTGSTGPGYSFPHYGFPTYGGITFHPGTTKSNAGMKHG
notes: Endogenous protein; also called NF-κB p50
